Results taken from publication PMC6933062 (Annals of Laboratory Medicine, 2019).
Where a chain is given by its changes, count along the chain named. Each block holds one binder with its values, some of them ahead of it. Ends that are not written are not given here. * marks the point of attachment. Biotin = O=C1N[C@H]2[C@H](CS[C@H]2CCCCC(=O)*)N1; Ttds = NCCCOCCOCCOCCCNC(=O)CCC(=O)*

Target: T1, biotinylated synthetic peptide containing the PDZ-binding motif of cadherin-related 23 …
T1 peptide: {Biotin-Ttds}-VIMESPLEITEL
Assay: BLI

Kd: 37.6 ± 4.1 µM
B1: wild-type PDZ2 domain of harmonin (domain or fragment)
chain: GGLGSPGNRTTKEKKVFISLVGSRGLGCSISSGPIQKPGIFVSHVKPGSLSAEVGLETGDQIVEVNGIDFTNLDHKEAVNVLKSSRSLTISIVAGAGRE

Kd: 621 ± 88 µM
B2: variant PDZ2 domain of harmonin carrying p.Gly223Cys (domain or fragment)
chain: B1 chain with G27C
